Entries after “also recorded” stand apart in the source; their conditions may differ.
Legend:
[1] = test system: visceral yolk sac endoderm; experiment: DiI-HDL uptake by mouse embryo yolk sac (ex utero culture, confocal microscopy); conditions: ± S.D.; DiI-HDL 1 μg/ml 1 h; RAP, ovalbumin 1 μM; IgGs 400 μg/ml; p<0.01 vs control
Experimental: Embryos (8-8.5 days post-conception) were removed from timed pregnant ICR mice (Harlan Sprague Dawley, Inc.) so as to leave visceral yolk sac endoderm intact and placed in DMEM. The embryos were then incubated in DMEM containing RAP (1 μM), ovalbumin (1 μM), rabbit anti-cubilin IgG (400 μg/ml) or normal rabbit IgG (400 μg/ml) for 0.5 h at 37° C., 5% CO2. DiI-HDL was added to a final concentration of (1 μg/ml) and incubated for 1 h at 37° C., 5% CO2. The medium was removed and the embryos gently washed with dPBS and fixed with 3% paraformaldehyde for 15 min. The fixed embryos were placed in dPBS, 0.1% azide in a well slide and examined by laser scanning confocal microscopy. The intensity of yolk sac fluorescence in mouse embryos incubated with DiI-HDL in the presence of either RAP, ovalbumin, anti-cubilin IgG or control IgG was evaluated by seven people in a double blinded fashion. The assessments of relative intensity were analyzed by a nonparametric statistical test using RANK and ANOVA procedures (SAS Institute, Inc., Cary, N.C.).

[2] = test system: RA/Bt2cAMP-treated F9 cells; experiment: DiI-HDL uptake by fluorescence-activated cell (FAC) scanning; type: cell-based, mouse; conditions: DiI-HDL 1 μg/ml, 37° C.; competitors preincubated; apolipoproteins and RAP 1 μM, apoE 0.25 μM, heparin 80 μM, IgGs 200 μg/ml, heparinase I 10 U/ml
Experimental: Untreated and RA/Bt2cAMP-treated F9 cells (1-1.5×10^5 cells/cm^2) were grown for 18 hours in serum-free medium (DMEM, ITS, penicillin, and streptomycin). After washing the cell layers with the same serum-free medium, apoE-free DiI-HDL was added to a final concentration of 1 μg/ml and incubated for 1-2 hours at 37° C., 5% CO2. For competition experiments, competitors were added in serum-free medium and incubated for 0.5 hours at 37° C., 5% CO2 prior to the addition of the DiI-HDL. After the incubation, the medium was removed, cell layers washed with serum-free medium and the cells released with a 0.5 mg/ml trypsin-0.53 mM EDTA solution (Mediatech). The cells were then pelleted by centrifugation at 180×g and resuspended in DMEM. Twice more, the cells were pelleted by centrifugation at 180×g, and resuspended in dPBS. The cells were then subjected to FAC sorting on a FACStarplus instrument (Becton Dickinson, San Jose, Calif.).
RA/Bt2cAMP-treated and -untreated F9 cells (1-1.5×10^5 cclls/cm^2) were grown for 18 h in SFM. After washing the cell layers with SFM, DiI-HDL or DIO-LDL was added to a final concentration of 1 μg/ml and incubated for 2 h at 37° C., 5% CO2. For competition experiments, competitors (HDL, HDL2, HDL3 and their corresponding apoE-free forms), LDL, oxidized LDL, VLDL, §-VLDL, Lp(a) ([…]), apoA-I (28.3 μg/ml, 1 μM), apoA-II (I 7.3 μg/ml, 1 μM), apoC-I (6.6 μg/ml, 1 μM), apoC-III (8.8 μg/ml, 1 μM), apoJ (70 μg/ml, 1 μM), ovalbumin (45 μg/ml, 1 μM), RAP (39 μg/ml, 1 μM), apoE (8.5 μg/ml, 0.25 μM), heparin (80 μM, 250 U/ml) or IgGs (200 μg/ml) were added in SFM and incubated for 45 min at 37° C., 5% CO2 prior to the addition of the fluorescent lipoproteins. After the incubation, the medium was removed, cell layers were washed with SFM and the cells were released with trypsin-EDTA-proteinase K. The cells were washed once with DMEM, twice with dPBS, then subjected to FAC scanning on a FACStar Plus instrument (Becton Dickinson, San Jose, Calif.). Plotted data are from gated cells having fluorescence intensity values greater than the autofluorescence values of 99% of unlabeled cells. For some experiments, cell layers were treated with hepaninase I (10 U/ml) for 2 h prior to the addition of the DiI-HDL.

B1: RAP: 39 kDa chaperone protein that inhibits ligand binding to LDLR family members; recombinant human RAP (protein, UniProt P30533 35-357, looked up)
Alpha-2-macroglobulin …: YSREKNQPKPSPKRESGEEFRMEKLNQLWEKAQRLHLPPVRLAELHADLKIQERDELAWKKLKLDGLDEDGEKEARLIRNLNVILAKYGLDGKKDARQVTSNSLSGTQEDGLDDPRLEKLWHKAKTSGKFSGEELDKLWREFLHHKEKVHEYNVLLETLSRTEEIHENVISPSDLSDIKGSVLHSRHTELKEKLRSINQGLDRLRRVSHQGYSTEAEFEEPRVIDLWDLAQSANLTDKELEAFREELKHFEAKIEKHNHYQKQLEIAHEKLRHAESVGDGERVSRSREKHALLEGRTKELGYTVKKHLQDLSGRISRARHNEL
B1 was tested, and the “fluorescence intensity RANK score of DiI-HDL incorporation into extraembryonic endoderm” value [1] was 9.77±0.22 and the “DiI-HDL uptake in presence of competitor” value [2] was “could be blocked; also recorded: completely blocked”.

Reference: patent publication US6846636B1, “Methods and compositions for HDL holoparticle uptake receptor” (American National Red Cross, priority 1998, dated 2005)
